Assay results: the supplement of paper PMC11246515
± gives the standard deviation of the averaged measurements.

Test: total protein half-life in vivo (active degradation + dilution); higher = more stable protein
[1] = E. coli NCM3722 delta-clpP delta-lon delta-hslV, growth: N-lim chemostat, doubling time 6 h
[2] = E. coli NCM3722 delta-hslV, growth: N-lim chemostat, doubling time 6 h
[3] = E. coli NCM3722 delta-lon, growth: N-lim chemostat, doubling time 6 h
[4] = E. coli NCM3722 delta-smpB, growth: N-lim chemostat, doubling time 6 h
[5] = wild type E. coli NCM3722, growth: C-lim chemostat, doubling time 3 h
[6] = wild type E. coli NCM3722, growth: C-lim chemostat, doubling time 6 h
[7] = wild type E. coli NCM3722, growth: C-lim chemostat, doubling time 12 h
[8] = wild type E. coli NCM3722, growth: N-lim chemostat, doubling time 6 h
[9] = wild type E. coli NCM3722, growth: P-lim chemostat, doubling time 6 h
[10] = wild type E. coli NCM3722, growth: P-lim chemostat, doubling time 12 h
[11] = wild type E. coli NCM3722, growth: N-lim chemostat, doubling time 12 h

Sequence | total protein half-life in vivo [1] [h] | total protein half-life in vivo [2] [h] | total protein half-life in vivo [3] [h] | total protein half-life in vivo [4] [h] | total protein half-life in vivo [5] [h] | total protein half-life in vivo [6] [h] | total protein half-life in vivo [7] [h] | total protein half-life in vivo [8] [h] | total protein half-life in vivo [9] [h] | total protein half-life in vivo [10] [h] | total protein half-life in vivo [11] [h] | total protein half-life in vivo (E. coli NCM3722 delta-clpP, growth: N-lim chemostat, doubling time 6 h) [h]
MSEEKLGQHYLAALNEAFPGVVLDHAWQTKDQLTVTVKVNYLPEVVEFLYYKQGGWLSVLFGNDERKLNGHYAVYYVLSMEKGTKCWITVRVEVDANKPEYPSVTPRVPAAVWGEREVRDMYGLIPVGLPDERRLVLPDDWPDELYPLRKDSMDYRQRPAPTTDAETYEFINELGDKKNNVVPIGPLHVTSDEPGHFRLFVDGENIIDADYRLFYVHRGMEKLAETRMGYNEVTFLSDRVCGICGFAHSTAYTTSVENAMGIQVPERAQMIRAILLEVERLHSHLLNLGLACHFTGFDSGFMQFFRVRETSMKMAEILTGARKTYGLNLIGGIRRDLLKDDMIQTRQLAQQMRREVQELVDVLLSTPNMEQRTVGIGRLDPEIARDFSNVGPMVRASGHARDTRADHPFVGYGLLPMEVHSEQGCDVISRLKVRINEVYTALNMIDYGLDNLPGGPLMVEGFTYIPHRFALGFAEAPRGDDIHWSMTGDNQKLYRWRCRAATYANWPTLRYMLRGNTVSDAPLIIGSLDPCYSCTDRMTVVDVRKKKSKVVPYKELERYSIERKNSPLK | 4.79 | 2.89 | 3.68 | 2.74 ± 0.029 | 2.46 | 5.18 | 11.2 ± 0.78 | 3.86 ± 1.7 | 5.02 | 8.26 ± 0.97 |  | 
MSKSHPRWRLAKKILTWLFFIAVIVLLVVYAKKVDWEEVWKVIRDYNRVALLSAVGLVVVSYLIYGCYDLLARFYCGHKLAKRQVMLVSFICYAFNLTLSTWVGGIGMRYRLYSRLGLPGSTITRIFSLSITTNWLGYILLAGIIFTAGVVELPDHWYVDQTTLRILGIGLLMIIAVYLWFCAFAKHRHMTIKGQKLVLPSWKFALAQMLISSVNWMVMGAIIWLLLGQSVNYFFVLGVLLVSSIAGVIVHIPAGIGVLEAVFIALLAGEHTSKGTIIAALLAYRVLYYFIPLLLALICYLLLESQAKKLRAKNEAAM |  |  |  | 4.62 ± 0.87 |  |  |  |  |  |  |  | 
MEKYLHLLSRGDKIGLTLIRLSIAIVFMWIGLLKFVPYEADSITPFVANSPLMSFFYEHPEDYKQYLTHEGEYKPEARAWQTANNTYGFSNGLGVVEVIIALLVLANPVNRWLGLLGGLMAFTTPLVTLSFLITTPEAWVPALGDAHHGFPYLSGAGRLVLKDTLMLAGAVMIMADSAREILKQRSNESSSTLKTEY |  |  |  | 5.11 |  |  | 12.5 |  |  |  | 6.8 | 
MMQTVLAKIVADKAIWVEARKQQQPLASFQNEVQPSTRHFYDALQGARTAFILECKKASPSKGVIRDDFDPARIAAIYKHYASAISVLTDEKYFQGSFNFLPIVSQIAPQPILCKDFIIDPYQIYLARYYQADACLLMLSVLDDDQYRQLAAVAHSLEMGVLTEVSNEEEQERAIALGAKVVGINNRDLRDLSIDLNRTRELAPKLGHNVTVISESGINTYAQVRELSHFANGFLIGSALMAHDDLHAAVRRVLLGENKVCGLTRGQDAKAAYDAGAIYGGLIFVATSPRCVNVEQAQEVMAAAPLQYVGVFRNHDIADVVDKAKVLSLAAVQLHGNEEQLYIDTLREALPAHVAIWKALSVGETLPAREFQHVDKYVLDNGQGGSGQRFDWSLLNGQSLGNVLLAGGLGADNCVEAAQTGCAGLDFNSAVESQPGIKDARLLASVFQTLRAY | 4.8 ± 0.34 | 4.15 ± 0.2 | 5.01 ± 0.64 | 4.1 ± 0.18 | 2.91 ± 0.1 | 4.97 ± 0.14 | 7.713 ± 0.011 | 4 ± 0.086 | 4.9 ± 0.078 | 9.51 ± 0.49 | 6.392 ± 0.053 | 4.62 ± 1
MEKEQLIEIANTIMPFGKYKGRRLIDLPEEYLLWFARKDEFPAGKLGELMQITLLIKTEGLTQLVQPLKRPL [P0AD40] | 6.16 ± 0.29 |  |  |  |  | 5.09 | 6.67 |  | 3.3 | 8.7 ± 2.7 |  | 
MMKNILAIQSHVVYGHAGNSAAEFPMRRLGANVWPLNTVQFSNHTQYGKWTGCVMPPSHLTEIVQGIAAIDKLHTCDAVLSGYLGSAEQGEHILGIVRQVKAANPQAKYFCDPVMGHPEKGCIVAPGVAEFHVRHGLPASDIIAPNLVELEILCEHAVNNVEEAVLAARELIAQGPQIVLVKHLARAGYSRDRFEMLLVTADEAWHISRPLVDFGMRQPVGVGDVTSGLLLVKLLQGATLQEALEHVTAAVYEIMVTTKAMQEYELQVVAAQDRIAKPEHYFSATKL |  | 2.01 ± 0.45 | 1.63 ± 0.039 | 1.73 | 2.89 ± 0.033 | 5 ± 1.8 | 5.86 ± 0.53 | 1.832 ± 0.0067 | 4.49 ± 0.085 | 8.09 ± 0.6 | 2.45 | 
